Experiments:
[1] = molecular target: 1GS mGRFT (GRFT with GS inserted between Ser16 and Gly17) (Griffithsia sp.) (UniProt P84801); test: AUC
[2] = molecular target: HIV-1 glycoprotein gp120 (HIV-1) (UniProt P04578); test: ITC

1GS mGRFT (GRFT with GS inserted between Ser16 and Gly17) (from UniProt P84801 1-121) (natural protein)
Kd [1]: 120 µM

1GS-S mGRFT (L2S variant of 1GS) (from UniProt P84801 1-121) (natural protein)
Kd [2]: 0.112 µM
dH [2]: -35.5 kcal/mol

Reference: PMC3399781
